# In IntAct's records for PubMed 22643122:
# B1: Mitogen-activated protein kinase 4 (Arabidopsis thaliana (Mouse-ear cress)), Q39024 (parent)
# chain: MSAESCFGSSGDQSSSKGVATHGGSYVQYNVYGNLFEVSRKYVPPLRPIGRGAYGIVCAATNSETGEEVAIKKIGNAFDNIIDAKRTLREIKLLKHMDHENVIAVKDIIKPPQRENFNDVYIVYELMDTDLHQIIRSNQPLTDDHCRFFLYQLLRGLKYVHSANVLHRDLKPSNLLLNANCDLKLGDFGLARTKSETDFMTEYVVTRWYRAPELLLNCSEYTAAIDIWSVGCILGETMTREPLFPGKDYVHQLRLITELIGSPDDSSLGFLRSDNARRYVRQLPQYPRQNFAARFPNMSAGAVDLLEKMLVFDPSRRITVDEALCHPYLAPLHDINEEPVCVRPFNFDFEQPTLTEENIKELIYRETVKFNPQDSV
# partner: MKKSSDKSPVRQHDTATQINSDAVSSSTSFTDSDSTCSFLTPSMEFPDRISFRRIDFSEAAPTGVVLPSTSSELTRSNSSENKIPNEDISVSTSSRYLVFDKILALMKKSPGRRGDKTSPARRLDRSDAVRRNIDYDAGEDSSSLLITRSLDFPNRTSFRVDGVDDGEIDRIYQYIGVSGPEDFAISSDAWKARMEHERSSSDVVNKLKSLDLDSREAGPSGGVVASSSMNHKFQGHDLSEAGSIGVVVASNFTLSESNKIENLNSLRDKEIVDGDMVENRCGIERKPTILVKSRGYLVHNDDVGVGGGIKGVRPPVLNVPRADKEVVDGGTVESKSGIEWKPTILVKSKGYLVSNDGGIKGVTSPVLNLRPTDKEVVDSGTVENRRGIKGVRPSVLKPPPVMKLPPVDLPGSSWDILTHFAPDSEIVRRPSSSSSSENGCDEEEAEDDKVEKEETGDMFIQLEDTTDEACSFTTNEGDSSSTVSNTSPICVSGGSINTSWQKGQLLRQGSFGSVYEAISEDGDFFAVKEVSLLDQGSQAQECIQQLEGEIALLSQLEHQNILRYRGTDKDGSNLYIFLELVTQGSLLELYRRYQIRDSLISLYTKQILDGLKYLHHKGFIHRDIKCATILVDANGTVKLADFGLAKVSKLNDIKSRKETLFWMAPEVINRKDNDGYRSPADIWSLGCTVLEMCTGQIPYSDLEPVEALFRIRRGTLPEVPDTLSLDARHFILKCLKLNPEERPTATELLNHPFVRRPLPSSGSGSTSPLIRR
# Variants of: B1
# Details: with mp3k2_arath MEKK2, O81472
row,effect of a mutation on the interaction,Variant
1,disrupting interaction,G186E
